Experimental data: US8629241B2, “Alpha helical mimics, their uses and methods for their production” (The University of Queensland, priority 2004, dated 2014)
Like-named read-outs stand apart in the source and are kept apart here. Where a SMILES comes first, the peptide text is derived from it. Bridges are numbered along the chain shown (N, C = ends). [ ]: non-standard residue; d: D form. Orn = NCCC[C@H](N)C(=O)O

Assay type: physicochemical
Conditions: for Relative helicity: [θ]215 relative to SEQ ID NO: 8; for [θ]190: molar elipticity at 190 nm; for [θ]207: molar elipticity at 207 nm; for [θ]215: molar elipticity at 215 nm; for θ215/θ207: ratio of elipticities
Method: Circular Dichroism (CD) was performed on peptides having SEQ ID NOs: 8 to 14 and 18 to 31, using methods described above. The molar elipticities at 222 nm, 208 nm and 190 nm, ratios of elipticities at 222 nm/208 nm and relative helicity are shown in Tables 6 and 7.
Assuming that mean alpha helix content (fH) is linearly related to elipticity at 222 nm, or in our case 215 nm ([θ]obs215), then the equation for calculating helix content is: fH=([θ]obs215−[θ]C)/([θ]∞215−[θ]C) (1) Luo and Baldwin^22 determined that the random coil ([θ]C) and infinite alpha helix ([θ]∞222) molar elipticities are temperature dependent based on the equations: [θ]C=2220−53T (2a) [θ]∞215=(−44000+250T)(1−k/Np) (2b) where T is temperature in degrees Celsius, Np is the number of peptide units, and k is a finite length correction.
CD was performed on peptides having one [SEQ ID NO: 8] or more than one modular macrocycle [SEQ ID NOs: 46 and 47], as compared with corresponding linear peptides, Ac[KARAD]n—NH2 where n=1 [SEQ ID NO: 14], n=2 [SEQ ID NO: 54] and n=3 [SEQ ID NO: 55]. The molar elipticities at 222 nm, 208 nm and 190 nm, ratios of elipticities at 222 nm/208 nm and percentage helicity are shown in Table 8.
CD experiments were performed on a Jasco Model J-710 spectropolarimeter which was routinely calibrated with (1S)-(+)-10-camphorsulfonic acid. Temperature control was achieved using a Neslab RTE-111 circulating water bath. Spectra were recorded in a 0.1 cm Jasco cell between 310-185 nm at 50 nm/min with a band width of 1.0 nm, response time of 2 sec, resolution step width of 0.1 nm and sensitivity of 20, 50 or 100 mdeg. Each spectrum represents the average of 5 scans with smoothing to reduce noise. Peptide samples for CD spectroscopy were dissolved in distilled water (˜1 mg/mL). Each stock solution was diluted to a final concentration of 50 μM in 10 mM sodium phosphate buffer (pH7.4), with or without additives (2,2,2-trifluoroethanol (TFE) or guanidine.HCl). Guanidine.HCl denaturation experiments were performed according to Creighton^105.
1D ^1H NMR spectra were then recorded with presaturation and a relaxation delay (d1) of 30 seconds to allow for full relaxation of peptide and DSS^1H signals to facilitate accurate integration of proton signals with S/N>250:1. This method provides reproducible concentrations within ±2%.
CD data in ellipticity was converted to mean peptide ellipticity using the equation: [θ]=θ/(10×C×Np×1) where θ is the ellipticity in millidegrees, C is the peptide molar concentration (M), 1 is the cell path length (cm), and Np is the number of peptide units (ie. pentapeptides […], 10 & 11 Np=5, 12 Np=4.)
Relative helicities were employed to allow scaling of compounds by dividing the [θ]obs215(8)/[θ]obs215(x) for pentapeptides, and [θ]obs215(24)/[θ]obs215(x) for hexapeptides.

[1] = Table 8, one or more cyclic pentapeptide modules versus linear peptides
[2] = 10 mM phosphate buffer, pH 7.4, 25° C

Molecule | θ222/θ208 (Table 8) | [θ]192 [1] [degcm^2dmol^−1residue^−1] | [θ]208 [1] [degcm^2dmol^−1residue^−1] | [θ]222 [1] [degcm^2dmol^−1residue^−1] | % helicity (fH × 100, [θ∞H]222 = −44000, k = 2.6) [%] | Relative helicity [2] | [θ]190 [2] | [θ]207 [2] | [θ]215 [2] | θ215/θ207 [2] | Relative helicity (in 0.01 M HCl pH 2) | [θ]190 (in 0.01 M HCl pH 2) | [θ]207 (in 0.01 M HCl pH 2) | [θ]215 (in 0.01 M HCl pH 2) | θ215/θ207 (in 0.01 M HCl pH 2)
CC(=O)N[C@@H](CCCCN)C(=O)N[C@@H](C)C(=O)N[C@@H](CCCNC(=N)N)C(=O)N[C@@H](C)C(=O)N[C@@H](CC(=O)O)C(=O)N[C@@H](CCCCN)C(=O)N[C@@H](C)C(=O)N[C@@H](CCCNC(=N)N)C(=O)N[C@@H](C)C(=O)N[C@@H](CC(=O)O)C(N)=O [SEQ ID NO: 54] (Ac-KARADKARAD-NH2) | 0.21 | −12237 | −8552 | −1836 | 3 | – | – | – | – | – | – | – | – | – | –
Ac-(cyclo-1,5)-[DARAK]-NH2 (Ac-DARAK-NH2; lactam 1-5; SMILES CC(=O)N[C@H]1CC(=O)NCCCC[C@@H](C(N)=O)NC(=O)[C@H](C)NC(=O)[C@H](CCCNC(=N)N)NC(=O)[C@H](C)NC1=O) [SEQ ID NO: 9] | – | – | – | – | – | 0.60 | 15600 deg.cm^2.dmol^−1.residue^−1 | −10705 deg.cm^2.dmol^−1.residue^−1 | −7723 deg.cm^2.dmol^−1.residue^−1 | 0.72 | – | – | – | – | –
Ac-(cyclo-1,5)-[DARAO]-NH2 (Ac-DARA[Orn]-NH2; lactam 1-5; SMILES CC(=O)N[C@H]1CC(=O)NCCC[C@@H](C(N)=O)NC(=O)[C@H](C)NC(=O)[C@H](CCCNC(=N)N)NC(=O)[C@H](C)NC1=O) [SEQ ID NO: 13] | – | – | – | – | – | 0.37 | −6954 deg.cm^2.dmol^−1.residue^−1 | −9748 deg.cm^2.dmol^−1.residue^−1 | −4671 deg.cm^2.dmol^−1.residue^−1 | 0.48 | – | – | – | – | –
Ac-(cyclo-1,5)-[EARAK]-NH2 (Ac-EARAK-NH2; lactam 1-5; SMILES CC(=O)N[C@H]1CCC(=O)NCCCC[C@@H](C(N)=O)NC(=O)[C@H](C)NC(=O)[C@H](CCCNC(=N)N)NC(=O)[C@H](C)NC1=O) [SEQ ID NO: 11] | – | – | – | – | – | 0.58 | 20735 deg.cm^2.dmol^−1.residue^−1 | −12803 deg.cm^2.dmol^−1.residue^−1 | −7430 deg.cm^2.dmol^−1.residue^−1 | 0.58 | – | – | – | – | –
Ac-(cyclo-1,5)-[EARAO]-NH2 (Ac-EARA[Orn]-NH2; lactam 1-5; SMILES CC(=O)N[C@H]1CCC(=O)NCCC[C@@H](C(N)=O)NC(=O)[C@H](C)NC(=O)[C@H](CCCNC(=N)N)NC(=O)[C@H](C)NC1=O) [SEQ ID NO: 19] | – | – | – | – | – | 0 | −11256 deg.cm^2.dmol^−1.residue^−1 | −1917 deg.cm^2.dmol^−1.residue^−1 | 2442 deg.cm^2.dmol^−1.residue^−1 | −1.27 | – | – | – | – | –
Ac-(cyclo-1,5)-[KARAD]-OH (Ac-KARAD-OH; lactam 1-5; SMILES CC(=O)N[C@H]1CCCCNC(=O)C[C@@H](C(=O)O)NC(=O)[C@H](C)NC(=O)[C@H](CCCNC(=N)N)NC(=O)[C@H](C)NC1=O) [SEQ ID NO: 20] | – | – | – | – | – | 0 | −13953 deg.cm^2.dmol^−1.residue^−1 | −5643 deg.cm^2.dmol^−1.residue^−1 | 207 deg.cm^2.dmol^−1.residue^−1 | −0.04 | 0.06 | −2659 deg.cm^2.dmol^−1.residue^−1 | −3195 deg.cm^2.dmol^−1.residue^−1 | −625 deg.cm^2.dmol^−1.residue^−1 | 0.20
Ac-(cyclo-1,5)-[KARAE]-NH2 (Ac-KARAE-NH2; lactam 1-5; SMILES CC(=O)N[C@H]1CCCCNC(=O)CC[C@@H](C(N)=O)NC(=O)[C@H](C)NC(=O)[C@H](CCCNC(=N)N)NC(=O)[C@H](C)NC1=O) [SEQ ID NO: 10] | – | – | – | – | – | 0.08 | −10611 deg.cm^2.dmol^−1.residue^−1 | −3393 deg.cm^2.dmol^−1.residue^−1 | −1068 deg.cm^2.dmol^−1.residue^−1 | 0.31 | – | – | – | – | –
